# In PMC8218686:
# System: T1, YhjC-His6 (Shigella flexneri (serotype 5a M90T?)), ORF:c5ce7ff9
# T1 sequence: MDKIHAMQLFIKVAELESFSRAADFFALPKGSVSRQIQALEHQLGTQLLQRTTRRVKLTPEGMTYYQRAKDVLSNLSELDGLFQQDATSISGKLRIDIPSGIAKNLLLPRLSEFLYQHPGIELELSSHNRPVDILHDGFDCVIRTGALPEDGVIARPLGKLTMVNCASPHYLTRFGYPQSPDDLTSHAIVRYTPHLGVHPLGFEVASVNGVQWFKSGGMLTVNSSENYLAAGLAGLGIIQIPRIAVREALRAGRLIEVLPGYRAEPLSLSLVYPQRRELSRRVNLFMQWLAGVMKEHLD
# Test: EMSA
# Conditions: 20 mM Tris-HCl pH 7.5, 50 mM KCl, 1 mM EDTA, 1 mM DTT, 5% glycerol
sequence,measurement,value
GGTTATAGTCCCTTTCAGTGCAAATACTTAGCTTGTTGCACAGAGAAATAGAAGCTGCATAAGCTCTTTCTTCAAAAAATGTAAATAAAGTTAAATATAGGAAAAATTACTTAATCTATCTTAATAACGGAAAGATTTTGTATACAATCACTGTTACAGAAATTTCTTAGTTACTCTGTAAACACTAAATATAGTTTGGTATATTCTGTTGAATTTATGATGGATATGGGACATAAAAACAAAATAGATATAAAGGTTCGCTTGCATAAC (double strand) [virF promoter (PvirF)],binding,binds
